# Experiment: soluble on expression in E. coli; label from the status in PepcDB or PDB records
row,Sequence,soluble on expression in E. coli
1,MSLSDDLFAPQVPVEVANRRPLADRLRPKTLSEVSGQPHLTGEEGVLRRMIDSGSLGSMIFWGPPGTGKTTVARLLSGEAGLAFEQISAIFSGVADLKKVFEAARTRRMNGRQTLLFVDEIHRFNRAQQDSFLPVMEDGTIILVGATTENPSFELNAALLSRARVLTFGSHDEDSLSELLKRAEEAEGKPLPLTEEARASLLRMADGDGRAVLTLAEEVWRAARKDETFDTEGLTRIVQRRAPVYDKSQDGHYNLISALHKSVRGSDPDAALYYLARMFDAGEDPLYLGRRLVRMAVEDIGLADPQALAVCNAAKDAYDYLGSPEGELALAQACVYLATAPKSNAVYTAFKAAMRAAKENGSLVPPKHILNAPTKLMKGEGYGDGYRYDHDEPDAFSGQDYFPEKMGRTTFYDPPDRGFEREIRKRLDWWAKLRRERGEGHHHHHH,not soluble
2,MADTRPERRFTRIDRLPPYVFNITAELKMAARRRGEDIIDFSMGNPDGATPPHIVEKLCTVAQRPDTHGYSTSRGIPRLRRAISRWYQDRYDVEIDPESEAIVTIGSKEGLAHLMLATLDHGDTVLVPNPSYPIHIYGAVIAGAQVRSVPLVEGVDFFNELERAIRESYPKPKMMILGFPSNPTAQCVELEFFEKVVALAKRYDVLVVHDLAYADIVYDGWKAPSIMQVPGARDVAVEFFTLSKSYNMAGWRIGFMVGNKTLVSALARIKSYHDYGTFTPLQVAAIAALEGDQQCVRDIAEQYKRRRDVLVKGLHEAGWMVEMPKASMYVWAKIPEPYAAMGSLEFAKKLLNEAKVCVSPGIGFGDYGDTHVRFALIENRDRIRQAIRGIKAMFRADGLLPASSKHIHENAE,soluble
3,MNPQRGILFACLLVVVTNRGATAQHARPPVGVTGDVTGARIDPPSDKCENPSVNIATTEAPKIVTTAEPAANSTKPAQPNSATGPVVLLTIVAVTMN,not soluble
4,MGSDKIHHHHHHAATVAEATSNPWDNYYIGKIDFKNLSPEAKGSAIYAAVIPDPEAYITKHARKVVETLYFTPEDSIPGIEEIHYTLKEYDGVSAKDGAPPSISIVYSTKWIEKSFANNDTAKVDYETRGVLYHELTHGFQLEPQGIGSYGTNKTFWAMIEGVADAVRYLNGGFTLEDRPKGGHYMDGYRTTGFFLAWLTQTKSPDFLRKFNRSTLEVIPWSFDGGVKYALGNDYDIDSLWKEYMATMGDEA,not soluble
5,GVDGCGSVTLAYDGFNVNLLHSKVSDSLIPSEFQGEQGSVLVDMIATGRGVERILRGEEKETLTLPQTENHMFYEAEAFAKQLKLGVIDEQMKQRSLTVAKVLTEVRKQTGVVFPADQ,not soluble
6,MGSDKIHHHHHHMHLTQSTISQQLARLEESVGHSLIDRTARPLQLTASGEYLIGYAQRILTLQQEAEAVLKDPAGSIPIRIGLPEDMMSTAMAEVFGLFAQEHRTIRLDVTSGLSRNLTERYRNGELDIVIVKESAASADCYASFPEEMAWFESENAITPLSEPIRLVTFPQGGLYRDEMFETLERERRRWYIAFTGSSLESVLVSVETGLGISLLPVSTTKGRRVRRYKSLGEASPMVVSIYTWEKAGLISQLVDHMTTVLHDRFQSGS,not soluble
7,MGSDKIHHHHHHMGIHLDFGISPKTFRQTYLYQKPKLFKGAVRNLEAASCKYINEIYQRADPTAPLFHLRKKGAIVPKEEYVESFDDLGKTRYRFIKSVIYEHMKNGASLVYNHINNEPFSDHIARQVARFAGAHTIVSGYLAFGSDESYKNHWDTRDVYAIQLFGKKRWQLTAPDFPMPLYMQQTKDTDISIPEHIDMDIILEAGDVLYIPRGWWHRPIPLGCETFHFAVGTFPPNGYNYLEWLMKKFPTIESLRHSFSDWEQDRTRINDTAAQIAAMIADPVNYEAFSEDFLGKERTDTAFHLEQFANPNATPLSDDVRLRLNANNLDTLEKGYLIGNGMKISVDELGKKVLEHIGKNEPLLLKNLLVNFNQAKHEEVRKLIYQLIELDFLEIL,not soluble
8,MMNTDNRLLTRESSEHIREFFSTVERLSVSMERLFAGRSPAMAGENFYTDRELAEKLKVSRRSLQQYRDSGLLAFTRLGGKILYRSSDIEKLLDGCYREARTRPEEL,not soluble
9,MAHHHHHHMRCVRVVCQRFVEFVTFCSGVVPPLALLGYPLPGSGCQKTHPTALSLKGARVGDADAGNADTWLSRAIPRNWAAFCVNLQARGVGLVTVGLSYGSPSVVVRQVLGWGCGGNELRLYGFCRSSVLCRVWGVSVPLSAFTPCSVDDSIFSLLRYRIFRACAS,not soluble
10,GHEIKDIREDTMHAEFNALRAQVAINDGNPDEAERLAKLALEELPPGWFYSRIVATSVLGEVLHCKGELTRSLALMQQTEQMARQHDVWHYALWSLIQQSEILFAQGFLQTAWETQEKAFQLINEQHLEQLPMHEFLVRIRAQLLWAWARLDEAEASARSGIEVLSSYQPQQQLQCLAMLIQCSLARGDLDNARSQLNRLENLLGNGKYHSDWISNANKVRVIYWQMTGDKAAAANWLRHTAKPEFANNHFLQGQWRNIARAQILLGEFEPAEIVLEELNENARSLRLMSDLNRNLLLLNQLYWQAGRKSDAQRVLLDALKLANRTGFISHFVIEGEAMAQQLRQLIQLNTLPELEQHRAQRILREINQHHGA,soluble
11,MATIIPTAWQPFKSETPLTTFPFRFPAEWEPQSAILIAWPHANTDWSAHLADVEETYIALVAAITRFQMVIICVLDDDLQTYTEARLRSASVAMQQVRFTVASYNDTWLRDSGPITLIGTNRDFRLLDFRFTGWGGKFEAKADDQLVSVLHANGLFKNTQMHSINFALEGGAIETDGAGTLLTTWRCLHERHPQRTRKTLDANLTAWLAQNRVLWLEHGYLEGDDTDAHIDTLARFASTDSIVYQSCDNTTDSHYAELQAMANELTALRTTEGRAYRLFPLPWTKPILDQDRRLPASYANFLIIEGAVLMPTYDDPADTIAQSVLAEAFP,not soluble
12,MKMQTYYYVLASRRFLLQEEPIEEVLKERTRHYHEQEKEIDFWLVPQPAFLEAPEFADIKAKCPQPAAAIISTNSQFITWLKLRLEYVVTGEFSAPSETIPNPLASLATASLEHHHHHH,soluble
13,MLKINYPIKGACQCGQVTYQLLAAPLMVAACHCRECQKLSTSAFSITAVVNATDVVFSGEMSDWSRLADNGNTNGAKFCPCCGNRIYHFNPNFPDKIKLKPSTLEDTRVIQPTMHIWTSEKQAWFKLPLDLPSHEKQPF,not soluble
14,MSLREIHVDTLTDAVAKLCIDACHRLPDNLVESFHKAAEKEVSPLGKSVLMKLIDNDRIARENDVSYCHDTGLAIVFVEVGQDVHIVGGSYEDAIQAGVRKGYAEGYMRKSVVSDPLLRVNSNDNTPAVVHTEIVPGDNIEVTVVPKGGGSENWSTMKFLLPGEGAEGVKKFVLSAIEAAGGAACPPLTVGVGIGGSFDKVTAIAKKAILRDIGVHHKEPHVAKLEAELLDAINKTGIGPQGYGGVNTALWVSVETYACHITALPVAVNIQCHAGRRATAVIEGHHHHHH,soluble
15,GSSHHHHHHMLKIGSHVSMSGKKMLLAASEEAVSYGATTFMIYTGAPQNTRRKPIEELNIEAGRKHMEQNGIEEIIIHAPYIINVGNTTKPETFQLGVDFLRMEIERTSALGVAKQIVLHPGAHVGAGADAGIQQIIKGLNEVLTPDQTVNIALETMAGKGTECGRSFEEIAKIIDGVKYNEKLSVCFDTCHTHDAGYDIVNNFDGVLNEFDKIVGIDRLQVLHINDSKNVRGAGKDRHENIGFGHIGYKALHHIVHHPQLTHVPKILETPYVGEDKKDKKPPYKLEIEMLKNGTFDEGLLEKIKAQ,soluble
16,MSLKYLGLCTDLYELTMAQSYLYEGKTGTAVFSLFVRKLPEKRNFLISAGLETLVERIKNFKFGDEEIKYLKSLGIFKDDFLDYLKDFEFSGNVYAIPEGRIVFQNEPLVQVEAPIPEAQLLETLVINTIQFETMIASKAVRSYLVAKGKKLVDFGFRRAHGLEAGILAARASYIAGFDGTSNVEAGREFGIPVVGTMAHSYVMIFDKEEDAFRAFAKLYPKNAIFLIDTYDTIEAAKKVVDLAKEGVPVVGVRIDSGDIVKLSKEVRKILDENGLKNVRIIVSGGVDEYKIKEWFDRGAPIDAFGVGTKFITSADAPYFDIAYKLVEYEGKPKYKLSPGKKTFPYKRQVYRYYENGKMKYDETAKWESKREGEPLVELVMKNGKLIKELPSLKEIREVVMSELEKLPENYKDITKHYEYEVKILDWEEGHHHHHH,not soluble
17,MIKIKAIERKAGFGKTSKTLWYPAIHLHSDVKFEEFIELVSDETTVSSADIKAVFDRAAKVLIRLLQDGKSIDCGDMGTYRPSITAKAGSGVDSADKVTVELVDKAKVIYTPRMKVKTALKGVRMERAERVLDVPYASSIKPNENNSGGSSSSDNNGHAGL,not soluble
18,AHHHHHHGSTIKAPTLNVPGLGVDPLTQRIKEKEKKWKYKIAVLSGKGGVGKSTVAVNLTAALAKMGYFVGILDADIHGPNVAKMFGIGNTDIYAEKFEDGHFEMIPPTVDFMGQVTPIKVMSMGMMVPEDQPIIWRGSLVTKAIKQLLGDVMWGELDFMIIDFPPGTGDEILTVVQSIQLDAAIVVTTPQEVALLDTGKAVNMMKKMEVPYIAVIENMSYLICPHCGNKIDIFGEGGGEKLAEKEGVDFLGKVPIDLKAREASDLGIPIVLYGDTPAAKAFMEIAEKLVNKLKEIKGDGREK,not soluble
19,FNQTYQFTGLLNPDGTVIEANDAALDFGGLDRDEIVGKHFADIPWWSHSDTERDNVRDALERAASGEFVRYETEVRGVDGLGTIDFSVKPVTDQDENVTLLVVEGRDIT,not soluble
20,MTSLSVNDRKDFVDGQMKYWRQIAESDGFDIDDVPVPRGTRAGLWSVDCKHPRFRLRACLPKIYAMVGLHRYNLLRGTNFEHLELLKYNESMNCVCSYYITSVAVDLSSQLQKTFQIRVDEKSFGDLDLTVSVARPNDEEKVTTEKRFIHHFHCEAAADDFYKGALPDWPSVGDLNNQKRFYMVKKCELQSNDWIRLYLELAVGVRYQQTSESDLSKLQVLKVAIETKEEDVQPPNRRLKSKSLHVYITFKGLAKAPIGDEIGEHVERKAIVRRVIDERSGHLTLLGGFSNAKNDLNQSSDDEQPFGKRRRI,soluble
21,MSLNIIRLLAESLPRISDGNENTDVWVNDMKFKMAYSFLNDDIDVIERELEQTVRSDYPLLSEAGLHLLQAGGKRIRPVFVLLSGMFGDYDINKIKYVAVTLEMIHMASLVHDDVIDDAELRRGKPTIKAKWDNRIAMYTGDYMLAGSLEMMTRINEPKAHRILSQTIVEVCLGEIEQIKDKYNMEQNLRTYLRRIKRKTALLIAVSCQLGAIASGADEKIHKALYWFGYYVGMSYQIIDDILDFTSTEEELGKPVGGDLLQGNVTLPVLYALKNPALKNQLKLINSETTQEQLEPIIEEIKKTDAIEASMAVSEMYLQKAFQKLNTLPRGRARSSLAAIAKYIGKREGHHHHHH,soluble
22,MILVFLDNMASIKDLNLIDEINDSSNLKLINDRLKLLFWTKNPEITDEENKKKYLDFLNEYWDTLRAYGAGDLELFPDKINYLTLILAANSKNHNIYIKKLAEKYAEKIPIEDGDSKINIWDFIDVAANSRNNDLHLERMILEGDTVLLNQKNQSIYNFEKIRLKLKNYVEKVRNAEMPKEIKDLLVKKSEEAFEGINIGYNIESGIKVSTKEYSGEIPEDWHPPCMREILNDILSGGSPSHYARRSFVVYRFVSQFDPNLRPIEEGIITNRSAQDIATEEQIERFLDEIINIFKSVGDFDVEKTKYYISHNIGYKVANHITHCEYCKNWRDDGGKGLGYYCRPDSTCSRKDIIHPLDYLCHNINRHVKKSELEHHHHHH,not soluble
23,MSLSISFKDVPAGHWSYKAILDLASKNIVTGYGNGIFGFGDDVTREQVARLMYLQLKPESQENYNNPYNDINDHSTSFKREILALTEMGIFAGDEKGNFRPKASLTREEMAQVLTNAYKLVAKSEHTFVDVDRKSWSNKAISAVQSNRIAAGTGDNMFSPKMNVTREQYVQFLYNATLPYEERPGANQEPKRFANCKEANDAGYYDITRDSPYYGKHLDRDGDGIACERNKSSKEGHHHHHH,not soluble

# Source: the DeepSol protein solubility set
